In patent publication US20170189519A1 (Janssen / Centocor, published 2017):

B1: CR6261 (antibody, V domains shown)
VH: EVQLVESGAEVKKPGSSVKVSCKASGGPFRSYAISWVRQAPGQGPEWMGGIIPIFGTTKYAPKFQGRVTITADDFAGTVYMELSSLRSEDTAMYYCAKHMGYQVRETMDVWGKGTTVTVSS
VL: QSVLTQPPSVSAAPGQKVTISCSGSSSNIGNDYVSWYQQLPGTAPKLLIYDNNKRPSGIPDRFSGSKSGTSATLGITGLQTGDEANYYCATWDRRPTAYVVFGGGTKLTVLG
B2: CR6261 (antibody, V domains shown)
VH: B1 VH
VL: B1 VL

Legend:
189E10 [1] = target: T1, 189E10 (influenza A H1N1 A/Brisbane/59/2007); assay: ELISA, coated CR6261, P. pastoris medium
262B9 [2] = target: T2, 262B9 (influenza A H1N1 A/Brisbane/59/2007); assay: ELISA, coated CR6261, P. pastoris medium
146G7 [3] = target: T3, 146G7 (influenza A H1N1 A/Brisbane/59/2007); assay: ELISA, coated CR6261, P. pastoris medium
189E10 [4] = target: T1, 189E10; assay: ELISA signal over HTRF expression signal
262B9 [5] = target: T2, 262B9; assay: ELISA signal over HTRF expression signal
146G7 [6] = target: T3, 146G7; assay: ELISA signal over HTRF expression signal
189E10 [7] = target: T1, 189E10; assay: ratio against parental SEQ ID NO: 6
262B9 [8] = target: T2, 262B9; assay: ratio against parental SEQ ID NO: 6
146G7 [9] = target: T3, 146G7; assay: ratio against parental SEQ ID NO: 6
s127H1-t2-cl18long = s127H1-t2-cl18long (influenza A virus H1N1 …, UniProt A8C8J4 18-529)

Binder | CR6261 binding signal (189E10 [1]) | CR6261 binding signal (262B9 [2]) | CR6261 binding signal (146G7 [3]) | ratio of CR6261 binding signal to HTRF signal (189E10 [4]) | ratio of CR6261 binding signal to HTRF signal (262B9 [5]) | ratio of CR6261 binding signal to HTRF signal (146G7 [6]) | fold increase of ratio over parental H1 mini-HA (189E10 [7]) | fold increase of ratio over parental H1 mini-HA (262B9 [8]) | fold increase of ratio over parental H1 mini-HA (146G7 [9]) | EC50 (s127H1-t2-cl18long)
B1 | 189000 | 94700 | 534000 | 10.3 | 9.89 | 10.2 | 1.74 | 1.66 | 1.71 | 
B2 |  |  |  |  |  |  |  |  |  | 0.139 µg/mL
